Measured values taken from the supplement of paper PMC12764529.
± gives the half width of the 95% confidence interval.

Columns and labels:
[1] = folding stability dG unfold from trypsin proteolysis; higher = more stable
In short: (§1)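 Unfolding free energy was derived, per protease or combined, by relating Bayesian-fitted K50 values from sequencing counts to a sequence-predicted unfolded-state K50 and a shared folded-state K50. The underlying digests exposed cysteine-free mini-proteins under 80 residues, in a PA-tagged cDNA display construct, to trypsin and chymotrypsin at 11 threefold-diluted concentrations and to a no-protease condition. A filter kept only designs with AlphaFold2 dimer inter-PAE above 15.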

[2] = folding stability dG unfold from chymotrypsin proteolysis; higher = more stable
In short: as §1

[3] = folding stability dG unfold (combined trypsin and chymotrypsin); higher = more stable
In short: as §1

Sequence | folding stability dG unfold [1] | folding stability dG unfold [2] | folding stability dG unfold [3]
SAGGSAGGSAGAEELAKALAEELNVEVEVEVVEVEEPEVEVTEERRLPPAPEEVTIEEDESAGGSAGGSAGG [r11_753_TrROS_Hall] | -0.129 ± 0.074 kcal/mol | 1.32 ± 0.092 kcal/mol | 0.939 ± 0.12 kcal/mol
SAGGSAGGSETVTLELTLEDGRTLRIEFDPETQRLTVTFPDGSKQEIEVETLDDALAALLEALSAGGSAGGS [r12_866_TrROS_Hall] | 2.91 ± 0.11 kcal/mol | 3.81 ± 0.072 kcal/mol | 3.6 ± 0.062 kcal/mol
SAGGSADEVEITLELEVELAPGQKTLTFKLLNLPPGLKFEVEEVELKVVEEDGKLRVEATIRIKKDSAGGSA [r15_321_TrROS_Hall] | 2.86 ± 0.17 kcal/mol | 4.34 ± 0.17 kcal/mol | 3.72 ± 0.16 kcal/mol
SAMTLEEAKKKGLVVIRVKIEVTLPNGEKREFERVIVAESLEEALEALREELEREGYKVEIVEIEIEKLSAG [r14_854_TrROS_Hall] | 2.76 ± 0.16 kcal/mol | 1.51 ± 0.11 kcal/mol | 2.04 ± 0.21 kcal/mol
SYDHMRKWIKQAAQERGLKVTNIDIEPTPKTNTFKMSIEIPNGREINFEFQHDKNGGWQFTIQQIKNALKSA [r9_85_TrROS] | 2.07 ± 0.084 kcal/mol | 2.8 ± 0.039 kcal/mol | 2.69 ± 0.2 kcal/mol
SAGGDLLKELARELGFNVEIERDPDDGTIRITIRPPEGHYVTITIKIDYDPENGKLKLEIDEIKVSPPSAGG [r13_936_TrROS] | 3.68 ± 0.17 kcal/mol | 3.63 ± 0.14 kcal/mol | 3.7 ± 0.17 kcal/mol
SAGGSANWVKVEVKIPGGLKIEVWVPPGMSKEENQEKAQEMADEMAQMLRQMRENRKEGKPPTIDFSAGGSA [r15_704_TrROS] | 0.819 ± 0.08 kcal/mol | 2.02 ± 0.065 kcal/mol | 1.66 ± 0.1 kcal/mol
SAGGGKKNKIVAVDEEGNEIVFDIDADIDTVFEAIKKLFPNKEIEVDEVIEFEGYPDYVVVFVKIPKKSAGG [r13_832_TrMRF] | 1.72 ± 0.14 kcal/mol | 2.59 ± 0.069 kcal/mol | 2.22 ± 0.22 kcal/mol
SAGGGMTTTTVTVTLDVPPDAGEEEVERLAEEIAAELKAAHPNITVTVEKITIDEKNATFTITVTTPGSAGG [r13_805_JUSTAS] | 3.19 ± 0.096 kcal/mol | 2.928 ± 0.029 kcal/mol | 3.03 ± 0.058 kcal/mol
SSITVVETREERVTLPDGREVTRRETRVVELSEEELRRLLRERLREALREAGIEEVTEEDLDSPEVLAALSA [r9_263_TrROS_Hall] | 1.2 ± 0.054 kcal/mol | 2.2 ± 0.032 kcal/mol | 1.86 ± 0.12 kcal/mol
SAGSSMSSTVRVEVTLTNPVTEVSPDGKTYTTPGDTVAVPVLINVSTTTYYNSSNPSDVVTETTTTVALSAG [r14_274_JUSTAS] | 1.07 ± 0.026 kcal/mol | 1.22 ± 0.19 kcal/mol | 1.18 ± 0.09 kcal/mol
SAGGSAGGSAGWLKLKFEFTFMIIIWNDDGNNELVMIPIRIRITMTIPPIKYDPDGKLKLSAGGSAGGSAGG [r11_558_TrROS] | 2.87 ± 0.22 kcal/mol | 3.72 ± 0.067 kcal/mol | 3.51 ± 0.22 kcal/mol
SAGGSAPSSELLEEEFETEDKSNNTTIKIYKVPGTGDYLIETTTPSGKKTKLTLGPLSESEAKGLISAGGSA [r15_295_JUSTAS] | 0.0974 ± 0.023 kcal/mol | 0.32 ± 0.097 kcal/mol | 0.32 ± 0.059 kcal/mol
SAGGSAGGMMYVVKITNEDGETLTIEAESEEEALEAARALAEETGREITRIEVRRLSKEEEEEESAGGSAGG [r6_162_TrROS_Hall] | 2.28 ± 0.06 kcal/mol | 2.787 ± 0.021 kcal/mol | 2.64 ± 0.064 kcal/mol
SGMEQKVEVLRVGAPGEEAVTRFTFKFEDKEFTLEASARLPDGSLVLLDFHVYRDPEGTFRVDVVVYPGFSA [r9_255_TrMRF] | 2.01 ± 0.069 kcal/mol | 3.27 ± 0.043 kcal/mol | 2.93 ± 0.1 kcal/mol
SMTLPLLFVFPVNSPEELEKARKLAEEEVKELAEELGVKVKIEKVEYFVNPEGDYVLIRAYVTVTSPEEESA [r9_105_TrMRF] | 3.18 ± 0.054 kcal/mol | 4.07 ± 0.1 kcal/mol | 3.76 ± 0.086 kcal/mol
SAGNPPVTITITINPFRHGDEPMYHVKIKNPGGKEREIPFPPDEFKEQIENEFPNIDEIEVEPMRLPPGSAG [r5_25_TrROS] | 0.207 ± 0.14 kcal/mol | 0.615 ± 0.29 kcal/mol | 0.408 ± 0.49 kcal/mol
SAGGSAGGSKPLVIRVRLTYYDEKTGKKVKEVELTLTVSEEEAKKLAEELKKLYPNVEVEIFPSAGGSAGGS [r12_342_TrROS_Hall] | 4.37 ± 0.53 kcal/mol | 4.67 ± 0.13 kcal/mol | 4.84 ± 0.39 kcal/mol
SAGGSAGGSAGGSNIEIEYNPNMMTIRIEPGDKPIEIQIKSPMTMEEFIKTALDKFPGISAGGSAGGSAGGS [r4_191_TrROS] | 0.394 ± 0.061 kcal/mol | 0.224 ± 0.18 kcal/mol | 0.415 ± 0.28 kcal/mol
SAGGSAMKIVEKKTVTLTLPDGREVTVTLTKVEVDGETYYVLTVTDKDTGKTYTFVFKPGQSLEDLSAGGSA [r15_75_TrROS_Hall] | 3.17 ± 0.092 kcal/mol | 4.67 ± 0.083 kcal/mol | 4.39 ± 0.2 kcal/mol
SAGGSMTLEEKSEEDYIIRYVEKGDTYSLIKINPNTGTAEVTTFKPGGVPSKTTYKIPKGKELKVTGSAGGS [r8_11_JUSTAS] | -0.0399 ± 0.11 kcal/mol | 0.726 ± 0.12 kcal/mol | 0.481 ± 0.079 kcal/mol

Sequence | folding stability dG unfold [1] | folding stability dG unfold [2] | folding stability dG unfold [3]
SAGGSAGGSAGSISRTATPDGYLYTFTDSSGKTHTIPSPVPGMPLSEVAERARAAGFSTVESSAGGSAGGSA [r18_83_JUSTAS] | -0.188 ± 0.12 kcal/mol | 0.968 ± 0.065 kcal/mol | 0.618 ± 0.08 kcal/mol
SAGGGSRTLTRGDKTYVFTTAPPPTGGRYVTLTVVDPATGAPAPVYTMDVTDGTDEEALARLLAAPLSAGGS [r16_378_JUSTAS] | -0.038 ± 0.11 kcal/mol | 0.847 ± 0.091 kcal/mol | 0.581 ± 0.038 kcal/mol
SAGGSAGSMPVEVTVTITVKDKNGTVLGTFPIKITVTSEEELEAKIKELKEKLKKEGYIVEKVDVVSAGGSA [r15_1054_JUSTAS] | 3.85 ± 0.17 kcal/mol | 2.65 ± 0.041 kcal/mol | 3.24 ± 0.091 kcal/mol
SAGGSASEELVEEIANIIKPALEEEGIEVERVEATAVTLPDGTVVIPVRVRTKDGPEVLEFNIVILSAGGSA [r15_232_TrMRF] | 1.1 ± 0.027 kcal/mol | 1.235 ± 0.012 kcal/mol | 1.19 ± 0.038 kcal/mol
SAGGSAGEAYSVVKASWNPETGTLNIVVKNPSTGEQKVYNIKPGNPVIDFPEGSVIESIEINPSPYSAGGSA [r15_959_TrMRF] | 0.237 ± 0.095 kcal/mol | 1.03 ± 0.2 kcal/mol | 0.835 ± 0.11 kcal/mol
SSSVTRTYTVTLPGSTVSIEITEKPNPEGSTTVTITVTTTKPGGGSTTTTVTKNITGLTLEDILKEAISSSA [r9_217_JUSTAS] | 3.38 ± 0.092 kcal/mol | 3.68 ± 0.05 kcal/mol | 3.57 ± 0.057 kcal/mol
SAGGSAMKIELENAKILDIKPTPDGKKVIFIELPSGKIIAVYEDNKVAVRSKKDPSVKPEDADPVFSAGGSA [r15_692_TrMRF] | 0.374 ± 0.07 kcal/mol | 1.17 ± 0.046 kcal/mol | 0.892 ± 0.11 kcal/mol
SAGGMTVTVKVTEIKKIGDKYEITLKNPDGTPKTVTIDDPEVVKKITPDSEVTVTVNPDGSYTITLESAGGS [r16_2_JUSTAS] | 3.74 ± 0.28 kcal/mol | 3.48 ± 0.23 kcal/mol | 3.84 ± 0.29 kcal/mol
SAGGSAGGSAGGSDPVKVTVTFTATVTVTLPDGGTAPVTLTVTVTAELPPGQSVEDFVASAGGSAGGSAGGS [r4_126_TrMRF] | 2.6 ± 0.033 kcal/mol | 3.65 ± 0.055 kcal/mol | 3.3 ± 0.073 kcal/mol
SAGGMSEALLADPTVEKVELFPSPGVTVYYRPETGTWLIQPPDGSVEEIKMTPEELEKLIADGLKPASAGGS [r16_745_JUSTAS] | 0.839 ± 0.11 kcal/mol | 0.588 ± 0.23 kcal/mol | 0.923 ± 0.1 kcal/mol
SAGGSAGGSEKVTIRFPAKELRERFPNATPEQIADRIAKKFPNIKRIEVEQEPGYYRITVQVESAGGSAGGS [r12_590_TrROS] | 2.58 ± 0.12 kcal/mol | 1.49 ± 0.043 kcal/mol | 2.15 ± 0.12 kcal/mol
SMKVEKLEDGTYIIVNEDGSITEIKVYPDKVEVKTYPVLYKMPDGRWFETKEEAEKFEEETGVPILEEDLSA [r9_660_TrMRF] | 0.787 ± 0.11 kcal/mol | 0.887 ± 0.27 kcal/mol | 0.759 ± 0.23 kcal/mol
SAGGMKIKIKIKPGQVILIKIRNKETGEEKTILVEVKEDQEITIELPEGYEIVDIKIVPLEDLPEEELSAGG [r13_119_TrROS_Hall] | 3.94 ± 0.3 kcal/mol | 3.96 ± 0.17 kcal/mol | 4.05 ± 0.23 kcal/mol
SAGGKVVPKNVKLPVTKEAEELAKKLAPELGYKKAEVKVKSAVEGYVKVEIYFPETGKKVEITVPVGSAGGS [r16_281_TrMRF] | -0.0217 ± 0.086 kcal/mol | 1.04 ± 0.025 kcal/mol | 0.739 ± 0.07 kcal/mol
SAGGSAGGSKKITIVVPTKEQAEALAKALEEAGYKVEKLPDGTLKITVDGKKIEVRIVPPKPKSAGGSAGGS [r12_204_TrROS_Hall] | 1.28 ± 0.023 kcal/mol | 3.15 ± 0.047 kcal/mol | 2.7 ± 0.059 kcal/mol
SAGMVIRLTSPTGSLEITITVEPDGETREAVVKAASGEEVSVIPPSVSVEEIKKRFPDVTASEEPLDLPSAG [r5_314_JUSTAS] | 0.518 ± 0.037 kcal/mol | 0.653 ± 0.038 kcal/mol | 0.628 ± 0.071 kcal/mol
SAGGSAGGSATVKIVETKVGADGAVYTTALVTLPNGGVLIVKTKTYPSGESETSVTLTSGKEFSAGGSAGGS [r12_995_TrMRF] | 2.21 ± 0.081 kcal/mol | 1.74 ± 0.045 kcal/mol | 2 ± 0.071 kcal/mol
SAGGSAGGSPKITVDPNTGKVLIEIPGPSGTALIIAEVKDGKITRVDIIGPPELREAIKKLLGSAGGSAGGS [r20_112_TrMRF] | 2.19 ± 0.082 kcal/mol | 2.04 ± 0.092 kcal/mol | 2.08 ± 0.073 kcal/mol
SAGGSAGGSASPSYLLTVTVYRPGGNPLSRRVFPPSVSPAEVEAWLATLPSDYSWEVSREPVSAGGSAGGSA [r18_431_JUSTAS] | 0.957 ± 0.051 kcal/mol | 2.95 ± 0.022 kcal/mol | 2.59 ± 0.048 kcal/mol
SAGGSAGGSAGSTLTVTLTVRDPANPGTTTTVTLTLEVEPAPPPEVVVVKDANGNETLVPSAGGSAGGSAGG [r11_419_TrROS_Hall] | 1.29 ± 0.047 kcal/mol | 1.91 ± 0.052 kcal/mol | 1.63 ± 0.061 kcal/mol
SAGGSGPSAPRTLTLDLPELPPGVKITVTVDFPGGRTFTGGVTERTATVDLPVPDGLEVESVTVQLESAGGS [r16_179_JUSTAS] | 0.00568 ± 0.1 kcal/mol | 0.00426 ± 0.16 kcal/mol | 0.0729 ± 0.085 kcal/mol
